Results published in US5703220.

Tests used:
[1] = target: human melanocortin-4 (MC4) receptor (human)
[2] = target: human melanocortin-1 (MC1) receptor (human)

| Substance | EC50 of cAMP response in transfected Hepa cells [1] [nM] | efficacy of cAMP response in transfected Hepa cells (% of the maximum response of α-MSH) [1] | cAMP generation in transfected L-cells (fold lower potency) [2] |
| --- | --- | --- | --- |
| Pro^11 γ-MSH (peptide) | 100 | 75 |  |
| β-MSH (peptide) |  |  | 10 |
| γ-MSH (peptide) | 20 | 45 |  |
